Results reported in US20250223280A1.
Bridges are numbered along the chain shown (N, C = ends). [ ]: non-standard residue; d: D form. Pro(4S-NH2) = N[C@@H]1CN[C@H](C(=O)O)C1

B1: Compound 85 (peptide)
peptide: PDCAWHLGELVWCTP
modifications: residue 1 = (2S,4S)-4-aminoproline; residue 15 = D-Pro; backbone cyclised head to tail; disulfide Cys3-Cys13; 4-amino group of residue 1 acylated with the linker to the sugar ligands
B2: Compound 94 (peptide)
peptide: cyclo(PDCAWHLGELVWCT[dP])
modifications: disulfide 3-13; not fully specified (residue 1); also: 4-amino group of residue 1 acylated with linker to ASGPR ligands
B3: Intermediate 4 (peptide)
peptide: PDCAWHLGELVWCTP
modifications: residue 1 = (2S,4S)-4-aminoproline; residue 15 = D-Pro; backbone cyclised head to tail; disulfide Cys3-Cys13; 4-amino group of residue 1 acylated with PEG4-propanoyl capped by hex-5-ynamide
B4: Compound 86 (peptide)
peptide: PDCAWHLGELVWCTP
modifications: residue 1 = (2S,4S)-4-aminoproline; residue 15 = D-Pro; backbone cyclised head to tail; disulfide Cys3-Cys13; 4-amino group of residue 1 acylated with the linker to the sugar ligands
B5: Compound 68 (peptide)
peptide: cyclo(PDCAWHLGELVWCT[dP])
modifications: disulfide 3-13; not fully specified (residue 1); also: 4-amino of residue 1 acylated with 4-(4-((4-(sugar-methyl)piperazin-1-yl)methyl)piperidin-1-yl)benzoic acid linker to ASGPR ligand (A140), one 6-(trifluoromethyl)pyrazin-2-ylamino sugar
B6: Compound 67 (peptide)
peptide: cyclo(PDCAWHLGELVWCT[dP])
modifications: disulfide 3-13; not fully specified (residue 1); also: conjugate from starting material A139
B7: Compound 65 (peptide)
peptide: cyclo(PDCAWHLGELVWCT[dP])
modifications: disulfide 3-13; not fully specified (residue 1); also: conjugate from starting material A137, ligand number not given here
B8: Compound 69 (peptide)
peptide: cyclo(PDCAWHLGELVWCT[dP])
modifications: disulfide 3-13; not fully specified (residue 1); also: conjugate from starting material A141
B9: Compound 80 (peptide)
peptide: PDCAWHLGELVWCTP
modifications: not fully specified; residue 1 = (2S,4S)-4-aminoproline; residue 15 = D-Pro; backbone cyclised head to tail; disulfide Cys3-Cys13; 4-amino group of residue 1 acylated with the butanoyl-triazole linker to the ASGPR ligand
B10: Compound 91 (peptide)
peptide: PDCAWHLGELVWCTP
modifications: not fully specified; residue 1 = (2S,4R)-4-aminoproline; residue 15 = D-Pro; backbone cyclised head to tail; disulfide Cys3-Cys13; 4-amino group of residue 1 acylated with the linker to the ASGPR ligand
B11: Intermediate 15 (peptide)
peptide: cyclo([Pro(4S-NH2)]ACSWHLGELVWCT[dP])
modifications: disulfide 3-13
SMILES: CC(C)C[C@@H]1NC(=O)[C@H](Cc2c[nH]cn2)NC(=O)[C@H](Cc2c[nH]c3ccccc23)NC(=O)[C@H](CO)NC(=O)[C@@H]2CSSC[C@H](NC(=O)[C@H](Cc3c[nH]c4ccccc34)NC(=O)[C@H](C(C)C)NC(=O)[C@H](CC(C)C)NC(=O)[C@H](CCC(=O)O)NC(=O)CNC1=O)C(=O)N[C@@H]([C@@H](C)O)C(=O)N1CCC[C@@H]1C(=O)N1C[C@@H](N)C[C@H]1C(=O)N[C@@H](C)C(=O)N2
B12: Compound 51 (peptide)
peptide: cyclo(PDCAWHLGELVWCT[dP])
modifications: disulfide 3-13; not fully specified (residue 1); also: conjugate: hex-5-ynoyl peptide (Intermediate 48) clicked to one 6-(trifluoromethyl)pyrazin-2-ylamino sugar azide
B13: Intermediate 8 (peptide)
peptide: PDCAWHLGELVWCTP
modifications: residue 1 = (2S,4S)-4-aminoproline; residue 15 = D-Pro; backbone cyclised head to tail; disulfide Cys3-Cys13; 4-amino group of residue 1 acylated (linker only in a drawing; the mass fits hex-5-ynoyl)
B14: Compound 84 (peptide)
peptide: PDCAWHLGELVWCTP
modifications: residue 1 = (2S,4S)-4-aminoproline; residue 15 = D-Pro; backbone cyclised head to tail; disulfide Cys3-Cys13; 4-amino group of residue 1 acylated with the linker to the sugar ligands
B15: Compound 72 (peptide)
peptide: cyclo(PDCAWHLGELVWCT[dP])
modifications: disulfide 3-13; not fully specified (residue 1); also: conjugate from starting material A144
B16: Compound 63 (peptide)
peptide: cyclo(PDCAWHLGELVWCT[dP])
modifications: disulfide 3-13; not fully specified (residue 1); also: conjugate from starting material A40
B17: Intermediate 12 (peptide)
peptide: cyclo([Pro(4S-NH2)]ACAWHLGELVWCT[dP])
modifications: disulfide 3-13
SMILES: CC(C)C[C@@H]1NC(=O)[C@H](Cc2c[nH]cn2)NC(=O)[C@H](Cc2c[nH]c3ccccc23)NC(=O)[C@H](C)NC(=O)[C@@H]2CSSC[C@H](NC(=O)[C@H](Cc3c[nH]c4ccccc34)NC(=O)[C@H](C(C)C)NC(=O)[C@H](CC(C)C)NC(=O)[C@H](CCC(=O)O)NC(=O)CNC1=O)C(=O)N[C@@H]([C@@H](C)O)C(=O)N1CCC[C@@H]1C(=O)N1C[C@@H](N)C[C@H]1C(=O)N[C@@H](C)C(=O)N2
B18: Compound 92 (peptide)
peptide: cyclo(PDCAWHLGELVWCT[dP])
modifications: disulfide 3-13; not fully specified (residue 1); also: linker and ASGPR ligand(s) not given here
B19: Compound 53 (peptide)
peptide: cyclo(PDCAWHLGELVWCT[dP])
modifications: disulfide 3-13; not fully specified (residue 1); also: conjugate: hex-5-ynoyl peptide clicked to azide A18
B20: Compound 95 (peptide)
peptide: cyclo(PDCAWHLGELVWCT[dP])
modifications: disulfide 3-13; not fully specified (residue 1); also: 4-amino group of residue 1 acylated with linker to ASGPR ligands
B21: Intermediate 13 (peptide)
peptide: cyclo([Pro(4S-NH2)]NCAWHLGELVWCT[dP])
modifications: disulfide 3-13
SMILES: CC(C)C[C@@H]1NC(=O)[C@H](Cc2c[nH]cn2)NC(=O)[C@H](Cc2c[nH]c3ccccc23)NC(=O)[C@H](C)NC(=O)[C@@H]2CSSC[C@H](NC(=O)[C@H](Cc3c[nH]c4ccccc34)NC(=O)[C@H](C(C)C)NC(=O)[C@H](CC(C)C)NC(=O)[C@H](CCC(=O)O)NC(=O)CNC1=O)C(=O)N[C@@H]([C@@H](C)O)C(=O)N1CCC[C@@H]1C(=O)N1C[C@@H](N)C[C@H]1C(=O)N[C@@H](CC(N)=O)C(=O)N2
B22: Compound 66 (peptide)
peptide: cyclo(PDCAWHLGELVWCT[dP])
modifications: disulfide 3-13; not fully specified (residue 1); also: conjugate from starting material A138
B23: Compound 64 (peptide)
peptide: cyclo(PDCAWHLGELVWCT[dP])
modifications: disulfide 3-13; not fully specified (residue 1); also: conjugate from starting material A125
B24: Compound 61 (peptide)
peptide: cyclo(PDCAWHLGELVWCT[dP])
modifications: disulfide 3-13; not fully specified (residue 1); also: conjugate: Intermediate 11 acylated with phenoxyacetic acid TFP ester carrying one 6-(trifluoromethyl)pyrazin-2-ylamino sugar
B25: Intermediate 14 (peptide)
peptide: cyclo([Pro(4S-NH2)]DCSWHLGELVWCT[dP])
modifications: disulfide 3-13
SMILES: CC(C)C[C@@H]1NC(=O)[C@H](Cc2c[nH]cn2)NC(=O)[C@H](Cc2c[nH]c3ccccc23)NC(=O)[C@H](CO)NC(=O)[C@@H]2CSSC[C@H](NC(=O)[C@H](Cc3c[nH]c4ccccc34)NC(=O)[C@H](C(C)C)NC(=O)[C@H](CC(C)C)NC(=O)[C@H](CCC(=O)O)NC(=O)CNC1=O)C(=O)N[C@@H]([C@@H](C)O)C(=O)N1CCC[C@@H]1C(=O)N1C[C@@H](N)C[C@H]1C(=O)N[C@@H](CC(=O)O)C(=O)N2
B26: Intermediate 5 (peptide)
peptide: PDCAWHLGELVWCTP
modifications: residue 1 = (2S,4S)-4-aminoproline (free 4-amino group); residue 15 = D-Pro; backbone cyclised head to tail; disulfide Cys3-Cys13
B27: Intermediate 7 (peptide)
peptide: PDCAWHLGELVWCTP
modifications: residue 1 = (2S,4S)-4-aminoproline; residue 15 = D-Pro; backbone cyclised head to tail; disulfide Cys3-Cys13; 4-amino group of residue 1 acylated with 3-(2-(hex-5-ynamido)ethoxy)propanoyl
B28: Intermediate 6 (peptide)
peptide: PDCAWHLGELVWCTP
modifications: residue 1 = (2S,4S)-4-aminoproline; residue 15 = D-Pro; backbone cyclised head to tail; disulfide Cys3-Cys13; 4-amino group of residue 1 acylated with PEG2-propanoyl capped by hex-5-ynamide
B29: Compound 52 (peptide)
peptide: cyclo(PDCAWHLGELVWCT[dP])
modifications: disulfide 3-13; not fully specified (residue 1); also: conjugate: hex-5-ynoyl peptide clicked to azide A2

Molecular target: IgG
Experiment: SPR, IgG immobilised on CM5 chip, compound as analyte; value from the legend of the grade (**** = Kd <100 nM)

Kd, < 100 nM:
B1
cyclo(PD[(S)‑2‑aminohex‑5‑enoic acid]AWHLGELVW[(S)‑2‑aminopent‑4‑enoic acid]T[dP]) (staple 3-13) [Intermediate 31]
B2
B3
B4
B5
B6
B7
B8
B9
cyclo(PDCAWHLGELVWCT[dP]) (disulfide 3-13; not fully specified (residue 1)) [Intermediate 30]
B10
B11
B12
B13
B14
B15
B16
B17
B18
B19
B20
cyclo(PDCAWHLGELVWCT[dP]) (disulfide 3-13; not fully specified (residue 1); also: conjugate from acid A32) [Compound 62]
B21
B22
B23
B24
B25

Molecular target: IgG
Experiment: SPR, IgG immobilised on CM5 chip, compound as analyte; value from the legend of the grade (++++ = Kd <100 nM)

Kd, < 100 nM:
B26
B3
B11
B27
B28
B17
cyclo(PDCAWHLGELVWCT[dP]) (disulfide 3-13; not fully specified (residue 1)) [Intermediate 9]
B19
B21
B29
